Among the data in article PMC10083601 (Proceedings of the National Academy of Sciences of the …, 2023) are Kd values, retold here.

The target in the assay is T1, N-terminally truncated tyrosine phosphorylated STAT1 (residues 136 to 750, N-terminally tagged with GB1) (UniProt P42224 136-750).
T1 sequence: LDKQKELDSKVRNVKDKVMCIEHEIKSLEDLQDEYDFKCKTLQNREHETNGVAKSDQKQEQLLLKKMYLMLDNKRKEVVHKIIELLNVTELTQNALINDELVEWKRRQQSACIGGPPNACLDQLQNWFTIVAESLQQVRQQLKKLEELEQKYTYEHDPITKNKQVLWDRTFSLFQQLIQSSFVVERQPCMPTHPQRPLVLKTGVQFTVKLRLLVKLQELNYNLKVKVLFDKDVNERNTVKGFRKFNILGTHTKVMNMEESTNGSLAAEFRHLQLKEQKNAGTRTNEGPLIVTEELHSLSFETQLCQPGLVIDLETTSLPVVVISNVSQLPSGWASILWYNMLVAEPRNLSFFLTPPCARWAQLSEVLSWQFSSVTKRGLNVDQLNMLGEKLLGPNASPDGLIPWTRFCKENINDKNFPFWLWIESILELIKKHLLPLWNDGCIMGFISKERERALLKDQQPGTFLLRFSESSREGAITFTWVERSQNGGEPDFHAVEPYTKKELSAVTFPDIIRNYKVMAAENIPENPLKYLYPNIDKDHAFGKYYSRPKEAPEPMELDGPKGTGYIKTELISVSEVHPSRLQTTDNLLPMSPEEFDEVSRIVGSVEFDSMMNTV
Put plainly: ITC. A general note: In ITC the heat of successive injections is recorded.

B1: Rabies virus (strain Nishigahara) P3 protein (natural protein)
chain: MSRLHLDDGKLPDLGRMSKAGEGRHQEDFQMDEGEDPSLLFQSYLDNVGVQIVRQMRSGERFLKIWSQTVEEIISYVTVNFPNPSGRSSEDKSTQTTSQEPKKETTSTPSQRKSQSLKSRTMAQTASGPPSLEWSATNEEDDLSVEAEIAHQIAESFSKKYKFPSRSSGIFLYNFEQLKMNLDDIVKEAKNVPGVTRLAHDGSKLPLRCVLGWVALANSKKFQLLVEANKLNKIMQDDLNRYASC
As a reminder, the Kd is the constant that tells how readily two partners part at equilibrium. B1: binding was characterised by a dissociation constant (Kd) of 800 nM.
